Changes are numbered by the printed parent chain. Names and notes keep the numbering of the source.
T1: monomeric RANK (UniProt O35305 31-214)
T1 sequence (looked up): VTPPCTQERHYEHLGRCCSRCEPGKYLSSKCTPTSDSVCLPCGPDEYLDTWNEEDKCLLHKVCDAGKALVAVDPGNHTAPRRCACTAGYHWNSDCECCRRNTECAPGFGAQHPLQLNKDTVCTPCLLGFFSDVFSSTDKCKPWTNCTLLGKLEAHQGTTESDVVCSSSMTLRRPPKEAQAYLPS

B1: RANKL K194E (ligand)
chain: KPEAQPFAHLTINAASIPSGSHKVTLSSWYHDRGWAEISNMTLSNGKLRVNQDGFYYLYANISFRHHETSGSVPTDYLQLMVYVVKTSEKIPSSHNLMKGGSTKNWSGNSEFHFYSINVGGFFKLRAGEEISIQVSNPSLLDPDQDATYFGAFKVQDID
modifications: Homotrimer; limits by convention (mouse RANKL ectodomain core). Species inferred: the printed numbering fits mouse
B2: RANKL Q236H (ligand)
chain: B1 chain with E37K, Q79H
modifications: Homotrimer; limits by convention (mouse RANKL ectodomain core)
B3: RANKL K194E/Q236H (ligand)
chain: B1 chain with Q79H
modifications: Homotrimer; limits by convention (mouse RANKL ectodomain core)
B4: RANKL K194E/Q236H/F269Y (ligand)
chain: B1 chain with Q79H, F112Y
modifications: Homotrimer; limits by convention (mouse RANKL ectodomain core)

Each binder was assayed against T1, monomeric RANK (assay: SPR).

Kd	koff	kon	Binder
899 nM	0.101 s⁻¹	113000 M⁻¹ s⁻¹	B1
81 nM	0.023 s⁻¹	300000 M⁻¹ s⁻¹	B2
67 nM	0.017 s⁻¹	174000 M⁻¹ s⁻¹	B3
29 nM	0.005 s⁻¹	167000 M⁻¹ s⁻¹	B4
